Source: patent US20210371518A1 (University of Texas, published 2021)
Numbering of substitutions follows the chain as printed.

B1: B4-49 (antibody, V domains shown)
VH: QSLEESGGDLVKPGASLTLTCTASGFDFSSSGWICWVRQAPGKGLELIACIYSGRSGSTYYASWAKGRVTISKTSSTTVTLQMTSLTAADTATYFCARALYVDYVDYDYIDLWGPGTLVTVSS
VL: ELDLTQTPASVEAAVGGTVTIKCQASQSTGIRLAWYQQKPGQPPKLLMYATSNLASGVSSRFKGSGSGTEFTLTISDLECADAATYYCQYSYYGSSYVFDFGGGTEVEIK
notes: Rabbit monoclonal antibody
B2: B4-87 (antibody, V domains shown)
VH: QSVKESGGDLVKPGASLTLTCTASGFSFISTYWICWVRQAPGKGLELIACIYTGGSGSTYYASWAKGRFTISKTSSTTVTLQLNSLTAADTATYFCARALYVDYVDYDYIDLWGPGTLVTVSS
VL: ELDLTQTPASVEAAVGGTVTIKCQASENIGSRLAWYQQKPGQPPKLLIYAASNLASGVSSRFKGSRSGTQFTLTISDLECADAAIYYCQCSYYGSTYVFGFGGGTEVEIK
notes: Rabbit monoclonal antibody
B3: B4-116-1 (antibody, V domains shown)
VH: EQSVEESGGDLVKPGASLTLTCAASGFSFSSTYCMCWVRQAPGKGLEWIACIHGVSTNNRWYASWPKGRFTISKTSSTTVTLQMTSLTAADTATYFCARSDTDYEWGLSLWGPGTLVTISS
VL: ELDLTQTPASVSEPVGGTVTIKCQASESIGSRLAWYQQKPGQRPKLLIYKASTLASGVPSRFSGSGSGTEFTLTVSDLECADVAAYYCQCAGQSSTWAFGGGTEVEIK
notes: Rabbit monoclonal antibody
B4: B4-116-2 (antibody, V domains shown)
VH: B3 VH
VL: B3 VL with D3V, L4M, S12E, E13A, P14V, E106V, I107V
notes: Rabbit monoclonal antibody
B5: B4-86 (antibody, V domains shown)
VH: EQSVESGGDLVKPEGSLTLTCTVSGFSFSSSYWICWVRQAPGKGLEWIGCIGTGSGSTYYGSWAKGRFTISKTSSTTVTLQMTSLTAADTATYFCVRGAGYSSYRLWGPGTLVTISS
VL: ELDMTQTPASVSEPVGGTVTIKCQASESVSNWLAWYQQKPGQRPKLLIYGASTLESGVPSRFSGSGSGTEFTLTISNLECADAATYYCQQGYDWDNIDNAFGGGTEVVVK
notes: Rabbit monoclonal antibody
B6: B4-72-2 (antibody, V domains shown)
VH: EQSVEESGGRLVTPGTPLTLTCTASGFSLSSYYMSWVRQAPGRGLEYIGVINTGGSAVYATWTKGRFTISRTSTTVDLKMTGLTTEDTATYFCARGWSRGDLWGQGTLVTISS
VL: ELDMTQTPSPVSAAVGGTVTIKCQSSQNVYDDDTLSWYQQKPGQPPKLLIYDASKLASGVPDRFSGSGSGTQFTLTISGVQCDDAATYYCLGVFHDGINNAFGGGTEVEIK
notes: Rabbit monoclonal antibody
B7: B4-15-1 (antibody, V domains shown)
VH: SGGLEESGGRLVTPGTPLTLTCTASGFTINSAHMSWVRQAPGKGLEWIGFSTTGGPSYYANWAKGRFTISRTSTTVDLEITSPTIEDTATYFCARDGPGNNIDMDLWGQGTLVTITS
VL: ELDLTQTPASVSEPVGGTVTIKCQASQNRGGSIAWYQQKPGQPPKLLIYSASTLASGVPSRFSGSGYGTEFTLTISGVQCADAGTYYCQSTIYSISDIGAFGGGTEVVVK
notes: Rabbit monoclonal antibody against human LILRB4 ECD
B8: h193 (antibody, V domains shown)
VH: EVQLVESGGGLVQPGGSLRLSCAASGFSLSSSYWISWVRQAPGKGLEWIGSIDSGSVGITYYATWVKGRFTISRDNSKNTLYLQMNSLRAEDTAVYYCARHGDNWALDLWGQGTLVTVSS
VL: DLVMTQSPSTLSASVGDRVTITCQASQSINSWLAWYQQKPGKPPKLLIYKASTLASGVSSRFSGSGSGTEFTLTISSLQPDDVATYYCQHGYIRGDLDNVFGGGTKVEIKR

Each binder was assayed against T1, human LILRB4 extracellular domain (ECD) recombinant protein (human, UniProt Q8NHJ6 22-259) (assay: ELISA, coated LILRB4 ECD).
T1 construct: extracellular domain; also called LILRB4 ECD; LILRB4-ECD
Description: FIG. 22 illustrates the determination of exemplary LILRB4 monoclonal antibody (mAbs) binding to human LILRB4 ECD using a concentration titration (0-10 μg/ml) by ELISA. X axis indicates the antibody concentrations and Y-axis is binding signals in OD (450 nm). LILRB4 ECD recombinant protein was coated on high absorption 96-well plates. Serial diluted (3-fold) LILRB4 mAb was added to the coated/blocked and detected using goat anti-rabbit IgG F(ab)₂-conjugated HRP as secondary antibody. The titration curves were fitted using 4-parameter fitting curve using the GraphPad software for EC50 estimation.

Row | EC50 | Binder
1 | 1.01 nM | B1
2 | 2.54 nM | B2
3 | 2.58 nM | B3
4 | 1.7 nM | B4
5 | 1.02 nM | B5
6 | 0.29 nM | B6
7 | 0.99 nM | B7

What follows are binders tested against T1, human LILRB4 extracellular domain (ECD) … (assay: ELISA, LILRB4 recombinant protein coated, anti-human IgG F(ab)2-HRP).

Row | EC50 (read off the curve) | Binder
8 | ~0.03 µg/mL | B8

These binders were tested against T1, human LILRB4 extracellular domain (ECD) … (assay: Octet BLI, antibody on protein A sensor, recombinant human LILRB4 in solution).
Description: FIG. 26 illustrates the kinetic binding measurements (sensor-grams) for exemplary LILRB4 antibodies determined using Octet. Antibody at 30 μg/mL was loaded to the proteins A sensor for 4 min. Following a short baseline in kinetics buffer, the loaded sensors were exposed to a series of recombinant human LILRB4 concentrations (0.1-200 nM) and background subtraction was used to correct for sensor drifting. All experiments were performed with shaking at 1,000 rpm. Background wavelength shifts were measured from reference sensors that were loaded only with antibody. ForteBio's data analysis software was used to fit the data to a 1:1 binding model to extract an association rate and dissociation rate. The KD was calculated by the ratio koff/kon using ForteBio's data analysis software 7.0.

Row | Kd | Binder
9 | 0.0233 nM | B1
10 | 0.238 nM | B2
11 | 0.82 nM | B3
12 | 0.495 nM | B4
13 | 0.344 nM | B5
14 | 3.73 nM | B6

Each binder was assayed against T2, human LILRB4 D1 recombinant protein (human, UniProt Q8NHJ6 24-119, limits assumed) (assay: ELISA, LILRB4 D1 recombinant protein coated, anti-rabbit IgG F(ab)2-HRP).
T2 construct: domain: D1 domain; also called LILRB4 D1 domain (D1); Ig domain-1
T2 sequence (Q8NHJ6 24-119 limits assumed): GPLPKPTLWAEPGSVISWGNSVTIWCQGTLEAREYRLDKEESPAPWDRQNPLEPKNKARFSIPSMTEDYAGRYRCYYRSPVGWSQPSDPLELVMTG
Description: FIGS. 23A-23B. FIG. 23A is a schematic of the LILRB4 extracellular domain (ECD). […] FIG. 23B illustrates the determination of exemplary LILRB4 mAbs binding to Ig domain-1 (D1 domain) of human LILRB4. X axis indicates the antibody concentrations and Y-axis is binding signals in OD (450 nm). LILRB4 D1 recombinant protein was coated on high absorption 96-well plates. Serial diluted (3-fold) LILRB4 mAb was added to the coated/blocked plates and detected using goat anti-rabbit IgG F(ab)₂-conjugated HRP as secondary antibody.

Row | EC50 (read off the curve) | Binder
15 | ~0.2 µg/mL | B2
